The values that follow are results of earlier work, collected in publication PMC8406260.

This series addresses SARS-CoV-2 main protease Mpro (Severe acute respiratory syndrome coronavirus 2) (UniProt P0DTD1).

Regarding “SARS-CoV-2 main protease Mpro (from UniProt P0DTD1)”, the equilibrium dissociation constant (Kd) is 2000 nM.

Usually Kd stands for the free concentration of one partner at which half of the binding sites on the other are occupied at equilibrium, for simple one-to-one binding.
